Reference: paper PMC3098241, “Amyloid-Associated Nucleic Acid Hybridisation” (PLoS ONE, 2011)

Legend:
[1] = molecular target: the molecule itself; assay: X-ray fibre diffraction; dried aligned stalks from gels of peptide with salmon testis DNA or poly(A) RNA (5 mM (KL)5 + 5 mM DNA, pH 7, 150 mM NaCl; 16 mM (HL)5 + 10 mM poly(A) RNA pH 6; 1.6 mM TVQFHMH + 1.6 mM DNA pH 5.0; 16 mM TVQFHMH + 10 mM poly(A) RNA pH 6.0; 10 mM (KL)3 + 10 mM DNA; 5 mM (HL)3 + 5 mM DNA pH 6.2); cross-beta pattern as the sign of peptide self-assembly
[2] = molecular target: the molecule itself; assay: circular dichroism + transmission electron microscopy; 0.8 mM STVIIE, 20 mM glycine pH 2.6, 20 C, spectra every 30 min for 24 h, without or with 242 nM 33mer DNA oligonucleotide (1:100 charge ratio); random coil to beta-sheet transition and fibrils

| Protein | binding result [1] | binding result [2] |
| --- | --- | --- |
| TVQFHMH (source: synthetic peptide, bought: GL Biochem (PR China) or Peptide 2.0 (USA), 95% purity) | binds | – |
| STVIIE (source: synthetic peptide, bought: Severn Biotech (UK), HPLC-purified) | – | binds |
